Our source for the EC50 values is US20260028422A1 (CONCEPT TO MEDICINE BIOTECH, published 2026).

Like-named read-outs stand apart in the source and are kept apart here.

Assay [1] has as its target T1, human MerTK expressed on cells (human, UniProt Q12866 21-999).
T1 construct: whole, on cells; also called CHO-K1-hMerTK; CHO-K1-MerTK
T1 sequence (looked up): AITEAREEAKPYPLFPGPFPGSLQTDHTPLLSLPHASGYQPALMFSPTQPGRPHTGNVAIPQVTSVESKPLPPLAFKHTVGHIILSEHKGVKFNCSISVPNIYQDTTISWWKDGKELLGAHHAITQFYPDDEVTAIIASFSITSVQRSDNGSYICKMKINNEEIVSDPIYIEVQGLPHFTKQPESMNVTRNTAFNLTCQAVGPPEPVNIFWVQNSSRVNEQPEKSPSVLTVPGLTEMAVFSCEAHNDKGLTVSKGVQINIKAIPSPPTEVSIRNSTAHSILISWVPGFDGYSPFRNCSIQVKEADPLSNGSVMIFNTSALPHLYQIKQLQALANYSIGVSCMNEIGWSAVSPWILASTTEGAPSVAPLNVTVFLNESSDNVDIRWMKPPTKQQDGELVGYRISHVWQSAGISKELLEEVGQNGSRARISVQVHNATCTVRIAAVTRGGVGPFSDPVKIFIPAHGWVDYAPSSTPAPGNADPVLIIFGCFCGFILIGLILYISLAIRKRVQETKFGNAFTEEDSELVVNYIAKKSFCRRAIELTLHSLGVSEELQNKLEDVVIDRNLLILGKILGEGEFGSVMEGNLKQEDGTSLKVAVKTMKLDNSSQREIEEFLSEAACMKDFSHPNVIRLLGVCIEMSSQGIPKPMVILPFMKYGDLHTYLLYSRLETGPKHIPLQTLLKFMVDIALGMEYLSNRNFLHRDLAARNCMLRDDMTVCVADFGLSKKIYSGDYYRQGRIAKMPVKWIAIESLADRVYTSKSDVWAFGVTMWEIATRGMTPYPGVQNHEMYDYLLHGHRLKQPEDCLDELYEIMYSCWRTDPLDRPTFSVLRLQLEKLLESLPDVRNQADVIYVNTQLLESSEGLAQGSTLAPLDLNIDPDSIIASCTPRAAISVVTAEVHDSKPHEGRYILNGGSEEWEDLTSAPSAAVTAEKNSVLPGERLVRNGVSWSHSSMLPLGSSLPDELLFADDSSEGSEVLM
Kind of assay: FACS on CHO-K1 cells overexpressing human MerTK, MFI (AF488).

The target of assay [2] is T1, human MerTK expressed on cells. The assay is described as above. The source holds these as a separate data set.
For assay [3], the target named is T2, human MerTK-his protein (human, UniProt Q12866 21-505).
T2 construct: extracellular domain; also called hMerTK-His; human MerTK protein
T2 sequence (looked up): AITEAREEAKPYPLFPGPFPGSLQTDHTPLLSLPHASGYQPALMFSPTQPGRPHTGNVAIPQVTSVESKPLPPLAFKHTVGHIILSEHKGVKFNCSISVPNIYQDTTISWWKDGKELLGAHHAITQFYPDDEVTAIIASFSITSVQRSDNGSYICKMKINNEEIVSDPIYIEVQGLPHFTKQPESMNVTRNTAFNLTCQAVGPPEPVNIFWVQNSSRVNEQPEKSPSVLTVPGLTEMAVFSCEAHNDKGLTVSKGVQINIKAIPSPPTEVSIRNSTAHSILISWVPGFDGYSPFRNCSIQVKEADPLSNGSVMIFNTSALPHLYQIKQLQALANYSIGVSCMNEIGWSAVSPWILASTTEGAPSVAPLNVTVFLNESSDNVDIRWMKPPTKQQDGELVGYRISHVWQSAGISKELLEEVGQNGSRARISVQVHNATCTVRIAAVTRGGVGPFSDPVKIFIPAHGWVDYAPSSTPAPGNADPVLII
Kind of assay: ELISA, plate coated with human MerTK-his, OD 450nm. As to the method: To evaluate the binding activity, the chimeric mAbs were subjected to ELISA test. Briefly, 96-well plates were coated with human or cyno MerTK-his protein at 2 μg/mL in PBS, 100 μL/well at 4° C. overnight, then blocked with 150 μL/well of 1% BSA. Five-fold dilutions of MerTK antibodies starting from 20 nM were added to each well and incubated for 1 hour at room temperature. The plates were washed with PBS/Tween-20 and then incubated with goat anti-human IgG Fe antibody conjugated with Horse Radish Peroxidase (HRP) for 30 minutes (mins) at room temperature. After washing, the plates were developed with TMB substrate and subsequent stop solution was added to complete the reaction. The signal from each well was read by spectrophotometer at OD 450 nm.
To evaluate the antigen binding activity, the humanized antibodies were subjected to ELISA test as described before.
On the technique in general: An ELISA detects its analyte on a solid surface through an enzyme-linked reagent.

Assay [4] has as its target T1, human MerTK expressed on cells. Description: FACS on CHO-K1 cells overexpressing human MerTK, MFI (AF488). This is another data set of the same source.
Assay [5] deals with T3, cyno MerTK-his protein (cynomolgus, UniProt A0A2K5V1H9 27-505).
T3 construct: also called cyno MerTK protein; Cynomolgus
T3 sequence: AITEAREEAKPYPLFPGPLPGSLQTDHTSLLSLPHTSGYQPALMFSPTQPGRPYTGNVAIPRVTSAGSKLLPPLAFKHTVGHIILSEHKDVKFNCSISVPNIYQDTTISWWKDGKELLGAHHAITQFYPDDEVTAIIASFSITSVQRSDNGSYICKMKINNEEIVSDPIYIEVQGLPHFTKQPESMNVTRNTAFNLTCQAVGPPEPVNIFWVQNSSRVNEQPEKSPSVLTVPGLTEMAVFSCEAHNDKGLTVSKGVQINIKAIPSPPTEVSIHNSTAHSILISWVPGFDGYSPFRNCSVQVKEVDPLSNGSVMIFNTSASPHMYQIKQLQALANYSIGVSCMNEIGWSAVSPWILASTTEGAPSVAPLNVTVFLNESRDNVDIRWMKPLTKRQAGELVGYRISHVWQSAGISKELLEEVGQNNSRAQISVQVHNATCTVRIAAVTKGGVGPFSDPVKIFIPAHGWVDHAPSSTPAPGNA
Kind of assay: ELISA, plate coated with cyno MerTK-his, anti-human IgG Fc-HRP, OD 450nm.

The target of assay [6] is T3, cyno MerTK-his protein. The description is as above. The source holds these as a separate data set.
Assay [7] deals with T2, human MerTK-his protein. Kind of assay: ELISA, plate coated with human MerTK-his, anti-human IgG Fc-HRP, OD 450nm.

B1: 254B4D9 chimeric monoclonal antibody (antibody, V domains shown)
VH: QIQLVQSGPELKKPGETVKISCKASGYTFTAYGMSWVKQAPGKGLQWMGWINTYSGVPTYTDDFKGRFAFSLEASASTAFLQINNLKNEDTSTYFCARRAAVVAKYWYFDVWGTGTTVTVSS
VL: DIQMTQSPSSLFASLGGKVIITCKSSQDINKRISWYQHKPGKGPRLLIHSTSSLQPGIPLRFSGSGSGRDYSFSISNLEPEDIATYFCLQYDNLLTFGAGTKLELK
With B1, it took 1 nM to reach a half-maximal effect in assay [1] (EC50).

B2: 265F11B5 chimeric monoclonal antibody (antibody, V domains shown)
VH: QVQLQQSGPELVKPGASVRLSCKASGYTFTTYDINWVKQRPGLGLEWIGWIYPRDGYTKYNEKFKGRATLAVDTSSSTAYMELHSLTSEDSAVYFCTRGYYDNLYYFDYWGQGTTLTVSS
VL: EIVLTQSPTTVAASPGEKITITCSASSIISSNYFHWYQQRPGFSPKLLIYRTSNLASGVPARFSGSGSGTSYSLTIGTMEAEDVATYYCQQGRSVPLTFGAGTKLELK
With B2, the EC50 (in general, the concentration at which the effect is half-maximal) was found to be 0.18 nM in assay [2], 0.098 nM in the assay with human MerTK-his protein [3] and 0.23 nM in assay [4].

B3: h13B4.v16 benchmark antibody (antibody, V domains shown)
VH: EVQLVESGEGLVQPGGSLRLSCAASGFSLSSYAMGWVRQAPGKGLEYVGIINSYGNTYYANWAKGRFTISRDNSKNTVYLQMGSLRAEDMAVYYCARDPGVSSNLWGRGTLVTVSS
VL: DIQMTQSPSTLSASVGDRVTITCQASQNIYSGLAWYQQKPGKAPKLLIYGASKLASGVPSRFSGSGSGTEFTLTISSLQPDDFATYYCQATYYSSNSVAFGGGTKVEIK
B3: the EC50 is 0.027 nM with cyno MerTK-his protein [5], 0.044 nM in the assay with cyno MerTK-his protein [6] and 0.037 nM with human MerTK-his protein [7].
